The values below come from paper PMC8999356, “In Vitro One-Pot 3-Hydroxypropanal Production from Cheap C1 and C2 Compounds” (International Journal of Molecular Sciences, 2022).

In general, Km refers to the substrate concentration at which the rate is half of its maximum. A word on the kcat: it is the maximal rate divided by the concentration of active sites.

Substrate in data set [1]: C=O
As to the kind of experiment: aldol condensation, 3-HPA quantified by HPLC after O-benzylhydroxylamine derivatisation, Michaelis-Menten fit. Format: biochemical, Thermotoga maritima. As to conditions: co-substrate acetaldehyde, 20 mM Kpi pH 7.0, 40 °C.

Substrate in data set [2]: CC=O
The description is as above. In kind it is biochemical, Thermotoga maritima. As to conditions: co-substrate formaldehyde, 20 mM Kpi pH 7.0, 40 °C.

B1: DERATma (Thermotoga maritima MSB8) (protein)
chain: MIEYRIEEAVAKYREFYEFKPVRESAGIEDVKSAIEHTNLKPFATPDDIKKLCLEARENRFHGVCVNPCYVKLAREELEGTDVKVVTVVGFPLGANETRTKAHEAIFAVESGADEIDMVINVGMLKAKEWEYVYEDIRSVVESVKGKVVKVIIETCYLDTEEKIAACVISKLAGAHFVKTSTGFGTGGATAEDVHLMKWIVGDEMGVKASGGIRTFEDAVKMIMYGADRIGTSSGVKIVQGGEERYGG
As for B1, in data set [1], the Km is on record as 2.41 mM and the kcat was found to be 0.00817 s⁻¹. Besides, in data set [2], the Km is given as 6.95 mM and the kcat worked out at 0.0085 s⁻¹.
